Experimental data from patent US20090220535A1 (REGENTS OF THE UNIVERSITY OF COLORADO, published 2009).
Numbering of substitutions follows the chain as printed. In names and notes the source's numbering stands.

Columns and labels:
[1] = biological target: HPV11 L1 protein (human papillomavirus type 11) (UniProt P04012); test: co-expression, glutathione sepharose eluate, densitometry of Coomassie-stained SDS-PAGE
[2] = biological target: T1, HPV11 L1 protein (human papillomavirus type 11, UniProt P04012 1-501); test: as above
T1 construct: Full-length HPV11 L1 DNA amplified from pVL11L1
T1 sequence: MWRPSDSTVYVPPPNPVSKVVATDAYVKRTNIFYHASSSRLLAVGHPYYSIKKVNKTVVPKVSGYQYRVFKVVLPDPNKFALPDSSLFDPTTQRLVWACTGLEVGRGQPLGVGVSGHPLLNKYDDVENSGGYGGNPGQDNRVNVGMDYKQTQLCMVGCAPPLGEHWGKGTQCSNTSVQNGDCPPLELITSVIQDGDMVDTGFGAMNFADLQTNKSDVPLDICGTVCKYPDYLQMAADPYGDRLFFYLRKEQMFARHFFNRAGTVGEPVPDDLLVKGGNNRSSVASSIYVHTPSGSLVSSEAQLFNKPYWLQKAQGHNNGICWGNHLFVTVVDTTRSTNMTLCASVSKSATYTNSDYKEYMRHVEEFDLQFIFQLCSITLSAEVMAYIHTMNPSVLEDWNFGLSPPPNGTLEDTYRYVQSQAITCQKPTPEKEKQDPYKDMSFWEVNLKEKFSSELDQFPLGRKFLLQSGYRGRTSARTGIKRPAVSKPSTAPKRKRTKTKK

[3] = biological target: T1, HPV11 L1 protein; test: co-expression in E. coli, glutathione sepharose eluate, immunoblot and Coomassie densitometry
[4] = biological target: T1, HPV11 L1 protein; test: co-expression in E. coli, glutathione sepharose eluate, SDS-PAGE
Procedure: The lysates were then treated with 10 units/ml DNAse I in the presence of 5 mM MgCl2 for 30 minutes. […] Lysates were briefly sonicated, then centrifuged at 17,000 G for one hour and the supernatant was passed over a 10 mL bed volume glutathione sepharose column. […] The columns were washed with buffer L (40 mM Tris-Cl, pH 8.0, 0.2 M NaCl, 1 mM EDTA, 2 mM DTT) until no protein was detectable in the wash (approximately 20 bed volumes). To purify L1+GST-L2 complexes, bound proteins were eluted with 10 mM reduced glutathione in buffer L. The eluates were concentrated using Centriplus concentrators (Amicon). To further purify L1+L2 complexes from contaminating bacterial proteins, free L2 and L2 degradation products, eluted proteins were subjected to size exclusion fast pressure chromatography (FPLC) using a HiLoad Superdex 200 gel filtration column (Pharmacia). FPLC fractions containing complexes were pooled and further concentrated as outlined above. Protein complexes were analyzed by SDS-PAGE followed by Coomassie blue staining or immunoblotting. For densitometric analysis on Coomassie-stained gels, images were captured using a fluor-S MultiImager (Bio-Rad) with Quantity One software (BioRad) and quantitated using ImageQuant software (Molecular Dynamics). Using this strategy, L1 will be present upon elution from glutathione-sepharose only if it is bound to GST-L2.
The ability of each L2 protein to bind HPV11 L1 was determined by the presence or absence of L1 in the eluate from the glutathione sepharose column as measured by SDS-PAGE.

[5] = biological target: T1, HPV11 L1 protein; test: densitometry of partially purified glutathione sepharose eluates
[6] = biological target: T1, HPV11 L1 protein; test: densitometry after size exclusion chromatography of the complex
[7] = biological target: T1, HPV11 L1 protein; test: co-expression, glutathione sepharose eluate, densitometry

COPV1 GST-L2 fusion protein, L2 amino acids 360-513 (from UniProt P08515 1-218)
L1:L2 [1]: < 1 L1:L2 ratio

HPV5 GST-L2 fusion protein, L2 amino acids 376-518 (from UniProt P06918 376-518)
L1:L2 [1]: < 1 L1:L2 ratio

HPV12 GST-L2 fusion protein, L2 amino acids 360-518 (from UniProt P08515 1-218)
L1:L2 [1]: < 1 L1:L2 ratio

B1: HPV33 GST-L2 fusion protein, L2 amino acids 319-467 (other)
chain: GARIHYYQDLSPIVPLDHTVPNEQYELQPLHDTSTSSYSINDGLYDVYADDVDNVHTPMQHSYSTFATTRTSNVSIPLNTGFDTPVMSGPDIPSPLFPTSSPFVPISPFFPFDTIVVDGADFVLHPSYFILRRRRKRFPYFFTDVRVAA
notes: also called HPV33 L2; not shown: glutathione-S-transferase (GST) fusion partner from vector pXA/BN (multiple cloning site of pGEX-4T-2); thrombin-cleavab
L1:L2 [2]: > 1 L1:L2 ratio

B2: BPV1 GST-L2 fusion protein, L2 amino acids 316-469 (other)
chain: GPQLHVRYSLSTIHEDVEAIPYTVDENTQGLAFVPLHEEQAGFEEIELDDFSETHRLLPQNTSSTPVGSGVRRSLIPTQEFSATRPTGVVTYGSPDTYSASPVTDPDSTSPSLVIDDTTTTPIIIIDGHTVDLYSSNYTLHPSLLRKRKKRKHA
notes: range 316-469; Cloned as a BamHI/XhoI fragment; also called BPV1 L2; not shown: glutathione-S-transferase (GST) fusion partner from vector pXA/BN (multiple cloning site of pGEX-4T-2); thrombin-cleavab
binding result [3]: no binding

B3: HPV1a GST-L2 fusion protein, L2 amino acids 347-507 (other)
chain: GARTHFFYDLSSIAPEDSIELLPLGEHSQTTVISSNLGDTAFIQGETAEDDLEVISLETPQLYSEEELLDTNESVGENLQLTITNSEGEVSILDLTQSRVRPPFGTEDTSLHVYYPNSSKGTPIINPEESFTPLVIIALNNSTGDFELHPSLRKRRKRAYV
notes: range 347-507; also called HPV1a L2; not shown: glutathione-S-transferase (GST) fusion partner from vector pXA/BN (multiple cloning site of pGEX-4T-2); thrombin-cleavab
binding result [3]: no binding

B4: HPV11 GST-L2 fusion protein, L2 amino acids 396-455 (other)
chain: SGPDITFPTASMGTPFSPVTPALPTGPVFITGSDFYLHPTWYFARRRRKRIPLFFTDVAA
notes: also called pXA/BN-HPV11L2/396-455; not shown: glutathione-S-transferase (GST) fusion partner from vector pXA/BN (multiple cloning site of pGEX-4T-2); thrombin-cleavab
binding result [4]: binds

B5: HPV11 GST-L2 fusion protein, L2 amino acids 157-309 (other)
chain: PLFTEPSVIQPQPPVEASGHILISAPTITSQHVEDIPLDTFVVSSSDSGPTSSTPLPRAFPRPRVGLYSRALQQVQVTDPAFLSTPQRLVTYDNPVYEGEDVSLQFTHESIHNAPDEAFMDIIRLHRPAITSRRGLVRFSRIGQRGSMYTRSG
notes: also called pXA/BN-HPV11L2/157-309; not shown: glutathione-S-transferase (GST) fusion partner from vector pXA/BN (multiple cloning site of pGEX-4T-2); thrombin-cleavab
binding result [4]: no binding

B6: HPV16 GST-L2 fusion protein, L2 amino acids 321-473 (other)
chain: GAKVHYYYDLSTIDPAEEIELQTITPSTYTTTSHAASPTSINNGLYDIYADDFITDTSTTPVPSVPSTSLSGYIPANTTIPFGGAYNIPLVSGPDIPINITDQAPSLIPIVPGSPQYTIIADAGDFYLHPSYYMLRKRRKRLPYFFSDVSLAA
notes: also called HPV16 L2; not shown: glutathione-S-transferase (GST) fusion partner from vector pXA/BN (multiple cloning site of pGEX-4T-2); thrombin-cleavab
L1:L2 [2]: > 1 L1:L2 ratio

B7: HPV11 GST-L2 fusion protein, L2 amino acids 1-455 (full length) (other)
chain: MKPRARRRKRASATQLYQTCKATGTCPPDVIPKVEHTTIADQILKWGSLGVFFGGLGIGTGAGSGGRAGYIPLGSSPKPAITGGPAARPPVLVEPVAPSDPSIVSLIEESAIINAGAPEVVPPTQGGFTITSSESTTPAILDVSVTNHTTTSVFQNPLFTEPSVIQPQPPVEASGHILISAPTITSQHVEDIPLDTFVVSSSDSGPTSSTPLPRAFPRPRVGLYSRALQQVQVTDPAFLSTPQRLVTYDNPVYEGEDVSLQFTHESIHNAPDEAFMDIIRLHRPAITSRRGLVRFSRIGQRGSMYTRSGQHIGARIHYFQDISPVTQAAEEIELHPLVAAENDTFDIYAEPFDPIPDPVQHSVTQSYLTSTPNTLSQSWGNTTVPLSIPSDWFVQSGPDITFPTASMGTPFSPVTPALPTGPVFITGSDFYLHPTWYFARRRRKRIPLFFTDVAA
notes: also called pXA/BN-HPV11 L2; not shown: glutathione-S-transferase (GST) fusion partner from vector pXA/BN (multiple cloning site of pGEX-4T-2); thrombin-cleavab
binding result [4]: binds

B8: HPV11 GST-L2 fusion protein, L2 amino acids 396-439 (other)
chain: SGPDITFPTASMGTPFSPVTPALPTGPVFITGSDFYLHPTWYFA
notes: also called pXA/BN-HPV11L2/396-439; not shown: glutathione-S-transferase (GST) fusion partner from vector pXA/BN (multiple cloning site of pGEX-4T-2); thrombin-cleavab
binding result [4]: binds

B9: HPV11 GST-L2 fusion protein, L2 amino acids 346-455 (other)
chain: DIYAEPFDPIPDPVQHSVTQSYLTSTPNTLSQSWGNTTVPLSIPSDWFVQSGPDITFPTASMGTPFSPVTPALPTGPVFITGSDFYLHPTWYFARRRRKRIPLFFTDVAA
notes: also called pXA/BN-HPV11L2/346-455; not shown: glutathione-S-transferase (GST) fusion partner from vector pXA/BN (multiple cloning site of pGEX-4T-2); thrombin-cleavab
binding result [4]: binds

B10: HPV6b GST-L2 fusion protein, L2 amino acids 316-459 (other)
chain: RIHYFYDISPIAQAAEEIEMHPLVAAQDDTFDIYAESFEPGINPTQHPVTNISDTYLTSTPNTVTQPWGNTTVPLSLPNDPFLQSGPDITFPTAPMGTPFSPVTPALPTGPVFITGSGFYLHPAWYFARKRRKRIPLFFSDVAA
notes: also called HPV6b L2; not shown: glutathione-S-transferase (GST) fusion partner from vector pXA/BN (multiple cloning site of pGEX-4T-2); thrombin-cleavab
L1:L2 [2]: > 1 L1:L2 ratio

B11: HPV11 GST-L2 fusion protein, L2 amino acids 346-439 (other)
chain: DIYAEPFDPIPDPVQHSVTQSYLTSTPNTLSQSWGNTTVPLSIPSDWFVQSGPDITFPTASMGTPFSPVTPALPTGPVFITGSDFYLHPTWYFA
notes: also called pXA/BN-HPV11L2/346-439; not shown: glutathione-S-transferase (GST) fusion partner from vector pXA/BN (multiple cloning site of pGEX-4T-2); thrombin-cleavab
binding result [4]: binds

B12: HPV11 GST-L2 fusion protein, L2 amino acids 1-156 (other)
chain: MKPRARRRKRASATQLYQTCKATGTCPPDVIPKVEHTTIADQILKWGSLGVFFGGLGIGTGAGSGGRAGYIPLGSSPKPAITGGPAARPPVLVEPVAPSDPSIVSLIEESAIINAGAPEVVPPTQGGFTITSSESTTPAILDVSVTNHTTTSVFQN
notes: also called pXA/BN-HPV11L2/1-156; not shown: glutathione-S-transferase (GST) fusion partner from vector pXA/BN (multiple cloning site of pGEX-4T-2); thrombin-cleavab
binding result [4]: no binding

B13: HPV11 GST-L2 fusion protein, L2 amino acids 157-455 (other)
chain: PLFTEPSVIQPQPPVEASGHILISAPTITSQHVEDIPLDTFVVSSSDSGPTSSTPLPRAFPRPRVGLYSRALQQVQVTDPAFLSTPQRLVTYDNPVYEGEDVSLQFTHESIHNAPDEAFMDIIRLHRPAITSRRGLVRFSRIGQRGSMYTRSGQHIGARIHYFQDISPVTQAAEEIELHPLVAAENDTFDIYAEPFDPIPDPVQHSVTQSYLTSTPNTLSQSWGNTTVPLSIPSDWFVQSGPDITFPTASMGTPFSPVTPALPTGPVFITGSDFYLHPTWYFARRRRKRIPLFFTDVAA
notes: also called pXA/BN-HPV11L2/157-455; not shown: glutathione-S-transferase (GST) fusion partner from vector pXA/BN (multiple cloning site of pGEX-4T-2); thrombin-cleavab
binding result [4]: binds

B14: HPV11 GST-L2 fusion protein, L2 amino acids 313-400 (other)
chain: GARIHYFQDISPVTQAAEEIELHPLVAAENDTFDIYAEPFDPIPDPVQHSVTQSYLTSTPNTLSQSWGNTTVPLSIPSDWFVQSGPDI
notes: also called pXA/BN-HPV11L2/313-400; not shown: glutathione-S-transferase (GST) fusion partner from vector pXA/BN (multiple cloning site of pGEX-4T-2); thrombin-cleavab
binding result [4]: no binding

B15: HPV11 GST-L2 fusion protein, L2 amino acids 1-309 (other)
chain: MKPRARRRKRASATQLYQTCKATGTCPPDVIPKVEHTTIADQILKWGSLGVFFGGLGIGTGAGSGGRAGYIPLGSSPKPAITGGPAARPPVLVEPVAPSDPSIVSLIEESAIINAGAPEVVPPTQGGFTITSSESTTPAILDVSVTNHTTTSVFQNPLFTEPSVIQPQPPVEASGHILISAPTITSQHVEDIPLDTFVVSSSDSGPTSSTPLPRAFPRPRVGLYSRALQQVQVTDPAFLSTPQRLVTYDNPVYEGEDVSLQFTHESIHNAPDEAFMDIIRLHRPAITSRRGLVRFSRIGQRGSMYTRSG
notes: also called pXA/BN-HPV11L2/1-309; not shown: glutathione-S-transferase (GST) fusion partner from vector pXA/BN (multiple cloning site of pGEX-4T-2); thrombin-cleavab
binding result [4]: no binding

B16: HPV11 GST-L2 (313-455) (other)
chain: GARIHYFQDISPVTQAAEEIELHPLVAAENDTFDIYAEPFDPIPDPVQHSVTQSYLTSTPNTLSQSWGNTTVPLSIPSDWFVQSGPDITFPTASMGTPFSPVTPALPTGPVFITGSDFYLHPTWYFARRRRKRIPLFFTDVAA
notes: Carboxy-terminal third of HPV11 L2; also called pXA/BN-HPV11L2/313-455; HPV GST=L2(313455); not shown: glutathione-S-transferase (GST) fusion partner from vector pXA/BN (multiple cloning site of pGEX-4T-2); thrombin-cleavab
L1:L2 [2]: > 1 L1:L2 ratio | L1:L2 [5]: ~2 L1:L2 ratio | L1:L2 [6]: ~5 L1:L2 ratio | L1:L2 [7]: 2 L1:L2 ratio

B17: HPV11 GST-L2 (313-455) mutant P416A (other)
chain: B16 chain with P104A
notes: also called pXA/BN-HPV11L2/313-455/P416A; not shown: N-terminal GST fusion partner and its thrombin linker (vector pXA/BN with the pGEX-4T-2 cloning site)
binding result [7]: binds

B18: HPV11 GST-L2 (313-455) double mutant AL417-418EE (other)
chain: B16 chain with A105E, L106E
notes: The text says 'changed to glutamines' but prints EE and speaks of negatively charged residues; also called pXA/BN-HPV11L2/313-455/AL417418EE; not shown: N-terminal GST fusion partner and its thrombin linker (vector pXA/BN with the pGEX-4T-2 cloning site)
L1:L2 [7]: 0.33 L1:L2 ratio

B19: HPV11 GST-L2 (313-455) mutant L418E (other)
chain: B16 chain with L106E
notes: not shown: N-terminal GST fusion partner and its thrombin linker (vector pXA/BN with the pGEX-4T-2 cloning site)
binding result [7]: binds

B20: HPV11 GST-L2 (313-455) mutant P413A (other)
chain: B16 chain with P101A
notes: also called pXA/BN-HPV11L2/313-455/P413A; not shown: N-terminal GST fusion partner and its thrombin linker (vector pXA/BN with the pGEX-4T-2 cloning site)
binding result [7]: binds

B21: HPV11 GST-L2 (313-455) mutant P419A (other)
chain: B16 chain with P107A
notes: also called pXA/BN-HPV11L2/313-455/P419A; not shown: N-terminal GST fusion partner and its thrombin linker (vector pXA/BN with the pGEX-4T-2 cloning site)
binding result [7]: binds

B22: HPV11 GST-L2 (313-455) mutant A417E (other)
chain: B16 chain with A105E
notes: also called pXA/BN-HPV11L2/313-455/A417E; not shown: N-terminal GST fusion partner and its thrombin linker (vector pXA/BN with the pGEX-4T-2 cloning site)
L1:L2 [7]: 1 L1:L2 ratio
